In article PMC7689096, “Cyclizing Painkillers: Development of Backbone-Cyclic TAPS Analogs” (Frontiers in Chemistry, 2020):
Values joined by “and” are separate entries in the source; they are usually repeats but may differ in a detail not shown here. Equal entries are not always repeated. Numbered stars: 1 amine (or outer) side, 2 acyl side, 3 side chain; on linkers, the order of the positions; unused ones are H or OH. Bridge positions count the residues as written; N and C are the ends. Square brackets hold non-standard residues; d marks the D form. Ends that are not written are not given here. N(6-aminohexyl)Gly = O=C(CN(CCCCCCN[*:3])[*:1])[*:2]; NGly(3-aminopropyl) = O=C(CN(CCCN[*:3])[*:1])[*:2]; N(2-Aminoethyl)Gly = O=C(CN(CCN[*:3])[*:1])[*:2]; CO = O=C([*:1])[*:2]; Nlys = NCCCCNCC(=O)O

What was measured:
[1] = Caco-2 permeability assay; conditions: human
[2] = target: T1, δ (DOP, OPRD2) opioid receptor (Mus musculus, UniProt P32300); assay: DOP opioid receptor functional antagonism in NG-10815 cells; format: cell-based, rat; conditions: Between 10^−9-10^−6 M, percent inhibition of control specific agonist response
T1 construct: NG-10815 cells which express significant endogenous levels of δ opioid receptors; host or cells: NG-10815 (NG108-15) mouse N18TG2 neuroblastoma x rat C6-BU-1 glioma hybrid cells
Method: (§1) Peptides were tested for μ (MOP, OPRM1) and δ (DOP, OPRD2) opioid receptor activation functional agonism and antagonism using CHO cells expressing human recombinant μ receptors and NG-10815 cells which express significant endogenous levels of δ opioid receptors. The cultures were incubated for 10 min at 37°C followed by impedance measurements of CHO cells and cAMP was assayed by the HTRF method using NG-10815 cells, according to CEREP standard assay protocols. The respective reference, non-peptide small molecules were tested concurrently with the TAPS analogs. The agonist compounds were: DPDPE (selective agonist of DOP receptor) and DAMGO (high MOP receptor specificity) and the antagonist compounds were: Naltrindole (selective DOP receptor antagonist) and CTOP (MOP receptor antagonist). […] The results are expressed as a percentage of respective control-specific response. […] These findings indicate that TAPS cyclic peptides are MOP selective full agonists. […] The cyclic TAPS peptide had lower activity than the linear parent TAPS peptide (90 ± 5%) – a finding that can be attributed to their restricted conformation relative to the flexible linear peptide conformation.
(§2) The respective reference, non-peptide small molecules were tested concurrently with the TAPS analogs; Agonist compounds DPDPE ([D-Pen2,D-Pen5]enkephalin), selective agonist of DOP receptor at 2 × 10^−9 M and DAMGO ([D-Ala2, N-MePhe4, Gly-ol] enkephalin), high MOP specificity at 2.5 × 10^−9 M; Antagonist compounds: naltrindole 7-(cyclopropylmethyl)-6,7-dehydro-4,5α-epoxy-3,14-dihydroxy-6,7-2′,3′-indolomorphinan hydrochloride, selective DOP antagonist, 5 × 10^−10 M and CTOP (D-Phe-Cys-Tyr-D-Trp-Orn-Thr-Pen-Thr-NH2), MOP antagonist at 3.4 × 10^−7 M. Depending on the assay volume and solvent tolerance, the stock solutions were diluted to [100×], [333×] or [1,000×] in 100% DMEM solvent, then either added directly or further diluted to [10×] or [5×] in H2O or Hank's balanced salt solution (HBSS) before addition to the assay well (final solvent concentration kept constant). The cultures were incubated for 10 min at 37°C followed by impedance measurements using cellular dielectric spectroscopy of CHO cells and cAMP was assayed by homogeneous time resolved fluorescence (HTRF) method using NG-10815 cells, according to CEREP standard assay protocols (https://euroscreenfast.com/assays/opioid-orl1-camp-fast-0360c; https://euroscreenfast.com/assays/opioid-op1-delta-camp-fast-0379c). The results (mean of three experiments) are expressed as a percent of control specific agonist response [(measured TAPS specific response/control specific agonist response) × 100] and as a percent inhibition of control specific agonist response [100 – (measured TAPS specific response/control specific agonist response) × 100] obtained in the presence of the TAPS compounds. Results showing a stimulation or an inhibition lower than 25% were considered not significant and mostly attributable to variability of the signal around the control level. Results showing a stimulation or an inhibition higher than 50% were considered to represent significant effects of the TAPS compounds.

[3] = target: T2, human recombinant μ (MOP, OPRM1) receptor (Homo sapiens, UniProt P35372); assay: MOP opioid receptor functional agonism in CHO cells expressing human recombinant μ receptors; format: cell-based; conditions: At 10^−6 M, percent of control specific agonist response, values lower than 25% not significant
T2 construct: host or cells: CHO cells
Method: as §1
Evaluation of the Agonist Activity of Compounds at the Human μ Receptor in Transfected CHO Cells, Determined by Measuring Their Effects on cAMP modulation Using the HTRF Detection Method
Thereafter, the adenylyl cyclase activator NKH 477 is added at a final concentration of […]. Following 10 min incubation at 37°C, the cells are lysed and the fluorescence acceptor (D2-labeled cAMP) and fluorescence donor (anti-cAMP antibody labeled with europium cryptate) are added. After 60 min at room temperature, the fluorescence transfer is measured at lex = 337 nm and lem = 620 and 665 nm using a microplate reader (Rubystar, BMG). The cAMP concentration is determined by dividing the signal measured at 665 nm by that measured at 620 nm (ratio). The results are expressed as a percent of the control response to 1 μM DAMGO. The standard reference agonist is DAMGO, which is tested in each experiment at several concentrations to generate a concentration-response curve from which its EC50 value is calculated.
as §2, with “Results showing a stimulation or an inhibition lower than 25% were considered not significant and mostly attributable to variability of the signal around the control level. Results showing a stimulation or an inhibition higher than 50% were considered to represent significant effects of the TAPS compounds.” left out

[4] = target: T2, human recombinant μ (MOP, OPRM1) receptor; assay: MOP opioid receptor functional antagonism in CHO cells expressing human recombinant μ receptors; format: cell-based; conditions: Between 10^−9-10^−6 M, percent inhibition of control specific agonist response, values lower than 25% not significant
Method: as §1, §2

mice = assay: Mouse open field test (locomotor adverse effect); conditions: 5 mg/kg IP
Method: In the mouse open field test (OF test), the distance and speed the animal moves over a 5-min time period is recorded, giving an indication as to whether a medication administered affected its locomotor activity. TAPS c(2-6) (5 or 15 mg/kg) was administered via IP administration and compared to morphine (5 mg/kg) and vehicle (PBS).
Male ICR mice (Harlan, Israel) 7 weeks of age (25–27) were used for all pharmacodynamic experiments after 5-day acclimation to laboratory conditions. Animals were allowed free access to food (standard commercial, sterile rodent diet) and water throughout the experiments and kept in automatically controlled environmental conditions for temperature and humidity levels in a 12-h dark-light cycle.
Animals were placed in the OF apparatus for a period of 5 min. The apparatus utilizes computerized monitoring which measures the speed and distance the animal walks during the measurement period. […] Baseline measurements were taken 1 day before initiation of the experiments and again at 0.5, 1.5, 3, and 5 h post injection.

[5] = target: T1, δ (DOP, OPRD2) opioid receptor; assay: DOP opioid receptor functional agonism in NG-10815 cells; format: cell-based, rat; conditions: At 10^−6 M, percent of control specific agonist response
Method: as §1
Evaluation of the Agonist Activity of Compounds at the Rat delta2 Receptor Endogenously Expressed in NG-10815 Cells, Determined by Measuring Their Effects on Impedance Modulation Using the CellKey (CDS) Detection Method
Cells are seeded onto 96-well plate coated with fibronectin at 2 × 10^5 cells/well in HBSS buffer (Invitrogen) + 20 mM HEPES (Invitrogen) with 0.1% BSA and allowed to equilibrate for 60 min at 37°C before the start of the experiment. Plates are placed onto the system and measurements are made at a temperature of 37°C. […] Impedance measurements are monitored for 10 min after ligand addition. The standard reference agonist is DPDPE, which is tested in each experiment at several concentrations to generate a concentration-response curve from which its EC50 value is calculated.
as §2, with “The results (mean of three experiments) are expressed as a percent of control specific agonist response [(measured TAPS specific response/control specific agonist response) × 100] and as a percent inhibition of control specific agonist response [100 – (measured TAPS specific response/control specific agonist response) × 100] obtained in the presence of the TAPS compounds. Results showing a stimulation or an inhibition lower than 25% were considered not significant and mostly attributable to variability of the signal around the control level. Results showing a stimulation or an inhibition higher than 50% were considered to represent significant effects of the TAPS compounds.” left out

T2 sequence (P35372 whole entry): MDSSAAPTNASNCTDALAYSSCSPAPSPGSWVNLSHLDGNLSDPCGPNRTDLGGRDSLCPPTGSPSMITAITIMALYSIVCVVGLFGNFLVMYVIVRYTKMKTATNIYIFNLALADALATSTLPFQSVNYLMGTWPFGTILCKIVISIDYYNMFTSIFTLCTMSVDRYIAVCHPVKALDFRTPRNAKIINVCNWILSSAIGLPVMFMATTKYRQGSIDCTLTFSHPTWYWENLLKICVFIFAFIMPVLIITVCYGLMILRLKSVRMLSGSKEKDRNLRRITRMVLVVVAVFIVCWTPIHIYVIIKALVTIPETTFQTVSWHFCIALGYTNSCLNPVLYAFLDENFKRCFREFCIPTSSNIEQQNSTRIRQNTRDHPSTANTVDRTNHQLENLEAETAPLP
T1 sequence (P32300 whole entry): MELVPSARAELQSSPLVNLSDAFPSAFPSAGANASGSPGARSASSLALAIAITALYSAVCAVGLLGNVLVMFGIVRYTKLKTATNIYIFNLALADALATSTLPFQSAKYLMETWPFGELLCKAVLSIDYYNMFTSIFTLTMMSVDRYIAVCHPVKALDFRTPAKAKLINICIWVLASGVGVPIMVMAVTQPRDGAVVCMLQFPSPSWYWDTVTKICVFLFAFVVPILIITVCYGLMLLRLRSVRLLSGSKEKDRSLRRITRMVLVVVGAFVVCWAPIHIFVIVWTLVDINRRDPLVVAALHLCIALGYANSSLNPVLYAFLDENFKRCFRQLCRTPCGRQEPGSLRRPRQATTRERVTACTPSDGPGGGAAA

Row | Molecule | Papp at 150 min [1] [×10⁻⁶ cm/s] | DOP antagonist (%) [2] [%] | MOP agonist (%) [3] | MOP antagonist (%) [4] [%] | locomotor effect (distance and speed of movement over 5 min) (mice) | DOP agonist (%) [5] [%]
1 | COCCc1ccc(OCC(O)CNC(C)C)cc1 (stereo not shown) [metoprolol, reference compound] | 13 | – | – | – | – | –
2 | TAPS c(4-6): backbone-cyclic TAPS analog, urea bridge; ring size 20 (YRF[Nlys]-NH2; bridge 2-4 via CO; not fully specified (residue 2); also: urea bridge between the two N-alkyl chains) | – | 3 | 1% | 1 | – | –
3 | CN1CC[C@]23c4c5ccc(O)c4O[C@H]2[C@@H](O)C=C[C@H]3[C@H]1C5 [morphine, reference compound] | – | – | – | – | excitatory effect | –
4 | TAPS c(3-6): backbone-cyclic TAPS analog, urea bridge; ring size 19 (YRF[NGly(3-aminopropyl)]-NH2; bridge 2-4 via CO; not fully specified (residue 2); also: urea bridge between the two N-alkyl chains) | – | 1 | 1% | 2 | – | –
5 | TAPS c(2-3): backbone-cyclic TAPS analog, urea bridge; n-m alkyl chain lengths on nitrogens of Gly and Arg; ring size 15 (YRF[N(2-Aminoethyl)Gly]-NH2; bridge 2-4 via CO; not fully specified (residue 2); also: urea bridge between the two N-alkyl chains) | – | 2 | 24% | 1 | – | –
6 | TAPS c(6-3): backbone-cyclic TAPS analog, urea bridge; ring size 19 (YRF[N(6-aminohexyl)Gly]-NH2; bridge 2-4 via CO; not fully specified (residue 2); also: urea bridge between the two N-alkyl chains) | – | 8 | 75 ± 9% and 75^** % | – | – | 19
7 | TAPS c(3-3): backbone-cyclic TAPS analog, urea bridge; ring size 16 (YRF[NGly(3-aminopropyl)]-NH2; bridge 2-4 via CO; not fully specified (residue 2); also: urea bridge between the two N-alkyl chains) | – | 11 | 1% | 2 | – | 14
8 | TAPS c(6-6): backbone-cyclic TAPS analog, urea bridge; ring size 22 (YRF[N(6-aminohexyl)Gly]-NH2; bridge 2-4 via CO; not fully specified (residue 2); also: urea bridge between the two N-alkyl chains) | – | 6 | 21% | 3 | – | 1
9 | TAPS c(4-3): backbone-cyclic TAPS analog, urea bridge; ring size 17 (YRF[Nlys]-NH2; bridge 2-4 via CO; not fully specified (residue 2); also: urea bridge between the two N-alkyl chains) | – | 0 | 63 ± 5% and 63^** % | – | – | 11
